We go through nine substances from patent US20090162336A1.

One may read the Kd as a measure of binding affinity in units of concentration.

The target in test [1] is taxol-stabilized microtubules made from PC tubulin. As to the kind of experiment: microtubule pelleting assay.
The target is the same in test [2]. Description: microtubule pelleting assay, after 35 kDal kinase, against unphosphorylated htau23.
The target is the same in test [3]. Description: microtubule pelleting assay, after 35 kDal kinase.
Test [4] shares this target. As to the kind of experiment: microtubule pelleting assay, microtubules from 10 µM tubulin with 20 µM taxol.
For test [5] the target is unchanged. As to the kind of experiment: microtubule pelleting assay, gel densitometry, 30 µM polymerized tubulin.
For test [6] the target is unchanged. Description: microtubule pelleting assay, brain extract phosphorylation.

“htau34 phosphorylated with the brain extract kinase activity (24 hours) (from UniProt P10636 1-412)” registered a fold reduction in binding capacity against unphosphorylated htau34 in test [1] of 3 fold.

In the case of “S404-A mutant of htau34 after 90 min of phosphorylation with the brain extract kinase activity (from UniProt P10636 1-412)”, the fold decrease in stoichiometry upon phosphorylation in test [1] turned out to be 2 fold. “htau23 mutant Ser262-Ala phosphorylated by the 35 kDal kinase (from UniProt P10636 1-352)” came in with a reduction in stoichiometry upon phosphorylation (Dn) (tau/tubulin dimer) in test [2] of 0.05. In addition, in test [3], the Kd is 11.6 µM and the stoichiometry n (tau/tubulin dimer) (tau/tubulin dimer) came out at 0.44. In test [4], “htau23 phosphorylated with GSK3 (from UniProt P10636 1-352)” registered a stoichiometry at saturation (tau per tubulin dimer) (per tubulin dimer) of 0.6. In the case of “bacterially expressed human tau isoform htau34, unphosphorylated (from UniProt P10636 1-412)”, the dissociation constant (Kd) in test [5] lay within 1 to 2 µM. “htau34 phosphorylated for 90 min with the brain extract kinase activity (stage 1) (from UniProt P10636 1-412)” displayed a fold decrease in stoichiometry upon phosphorylation in test [1] of 3 fold. Turning to “htau23 phosphorylated with the brain extract kinase activity (full, stage 3, 24 hours) (from UniProt P10636 1-352)”, the Dn (difference in stoichiometry upon phosphorylation) (tau/tubulin dimer) in test [6] is 0.33. In test [5], this substance displayed a Kd of 4.9 µM and a stoichiometry n (tau/tubulin dimer) (tau/tubulin dimer) of 0.16.

The substance “htau23 mutant Ser262-Ala phosphorylated with brain extract (from UniProt P10636 1-352)” showed a Dn (difference in stoichiometry upon phosphorylation) (tau/tubulin dimer) in test [6] of 0.04. In test [5], this substance returned a Kd of 5.3 µM and a stoichiometry n (tau/tubulin dimer) (tau/tubulin dimer) of 0.45. “htau23 phosphorylated by the 35 kDal kinase (from UniProt P10636 1-352)”: the reduction in stoichiometry upon phosphorylation (Dn) (tau/tubulin dimer) in test [2] came to 0.28. Moreover, in test [3], the Kd came out at 8.8 µM and the stoichiometry n (tau/tubulin dimer) (tau/tubulin dimer) came out at 0.21.
